Assay results: PMC5025888 (Scientific Reports, 2016)

Key:
H1N1-PR8-NS1(RBD) = H1N1-PR8-NS1(RBD) (Influenza A virus A/Puerto …, UniProt P03496); assay: ELISA; conditions: both partners purified
H5N1-NS1-24mer = H5N1-NS1-24mer (Influenza A virus …); assay: ELISA; conditions: both partners purified
Chain of H5N1-NS1-24mer (Influenza A virus …) (O57276 30-53): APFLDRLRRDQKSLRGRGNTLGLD

Chain of H1N1-PR8-NS1(RBD) (P03496 1-70): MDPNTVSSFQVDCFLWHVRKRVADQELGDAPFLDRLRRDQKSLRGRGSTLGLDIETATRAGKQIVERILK

B1: monoclonal antibody 2H6 (antibody, V domains shown)
VH: DVKLVESGGGLVNLGGSLKLSCAASGFTFSRYYMSWVRQTPEKRLELVAAINHNSGRTYYSDTVKGRFTISRDNAKNTLYLQMSSLKSEDTALYYCTRHPLIYHGNYLDYWGQGTTLTVSS
VL: DIVLTQSPASLAVSLGQRATISCKASQSVDYDGDSYVTWYQQKPGQPPKLLIYVASNLESGIPARFSGSGSGTDFTLNIHPVEEEDAATYYCQQSNEDPWTFGGGTKLEIK
Q: Does B1 bind (H1N1-PR8-NS1(RBD))?
A: Result: binds

Q: Does B1 bind (H5N1-NS1-24mer)?
A: Result: binds
